{
  "source": "the nanobody polyreactivity screen of Harvey et al. (2022)",
  "data": [
    {"test": "yeast display, Sf9 membrane polyspecificity reagent, FACS + sequencing; frameworks hold sequencing errors", "how_it_was_run": "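Sorting gates, low and high (top ~1%), were placed on anti-HA fluorescence to track expression and on streptavidin fluorescence to track reagent binding. A clone's polyreactivity label is taken from the gate it came out of. The reagent was 10% biotinylated, detergent-solubilized Sf9 membrane, applied for 1 hour at 4 °C to galactose-induced yeast display cells.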", "values": [
      {"sequence": "QVQLVESGGGLVQAGGSLRLSCAASGSIFPDYAMGWYRQAPGKERELVAAITWRDDSTYFADSVKGRFTISRDNAKNTVYLQMNSLKPEDTAVYYCNASALDPLYAKDEYWGQGTQVTVSS", "polyreactivity (PSR sort gate)": "low polyreactivity"},
      {"sequence": "QVQLVESGGGLVQAGGSLRLSCAASGSIFPDYAMGWYRQAPGKERELVAGISSNSGSTYYADSVKGRFTISRDNAKNTVYLQMTSLKPEDTAVYYCAKDSFWRDTGYTDGDYWGQGTQVTVSS", "polyreactivity (PSR sort gate)": "low polyreactivity"},
      {"sequence": "QVQLVESGGGLVQAGGSLRLSCAASGSIFPGNAMGWYRQEPRKERELVAAITKGDGSTNYADSVKGRFTISRDNAKNTVYLQLNSLITEDTAVYYCADRSRVFGYQGYDYWGQGTQVTVSS", "polyreactivity (PSR sort gate)": "low polyreactivity"},
      {"sequence": "QVQLVESGGGLVQAGGSLRLSCAASGSIFPGYAMGWDRQAPGKERQLVATITWSGGSTYYADSVKGRFTISRDNAKNTVYLQMNSLKPEDTAVYYCIADSNWYYQWNYYGLYDYWGQGTQVTVSS", "polyreactivity (PSR sort gate)": "low polyreactivity"},
      {"sequence": "QVQLVESGGGLVQAGGSLRLSCAASGSIFPGYAMGWSRQAPGKERELVATISTGGSTYYADSVKGRFTISRDNAKNTVYLQMNSLKPEDTAVYYCNADIRSYLRYSLRRYDDYDYWGQGTQVTVSS", "polyreactivity (PSR sort gate)": "low polyreactivity"},
      {"sequence": "QVQLVESGGGLVQAGGSLRLSCAASGSIFPGYAMGWYRQAPGKERELVATITWSASETYYADSVKGRFTISRDNAKYTVYLQMNSLKPEDTAVYYCNAEVYELFVVYSALDYWGQGTQVTVSS", "polyreactivity (PSR sort gate)": "low polyreactivity"},
      {"sequence": "QVQLVESGGGLVQAGGSLRLSCAASGSIFPGYTMGWYRQAPGKERELVAAISRRGGSTYYADSVKGRITISRDNAKNSVYLQMNSLKPEDTAVYYCAKVPDYRFEYWGQGTQVTVSS", "polyreactivity (PSR sort gate)": "high polyreactivity"},
      {"sequence": "QVQLVESGGGLVQAGGSLRLSCAASGSIFPHNAMGWYRQAPGKERELVAAISVSGGSTYYADSVKGRFTISRDNAKNTVYLQMNSLKPEDTAVYYCATRYGRARAYYYWGQGTQVTVSS", "polyreactivity (PSR sort gate)": "high polyreactivity"},
      {"sequence": "QVQLVESGGGLVQAGGSLRLSCAASGSIFPHYAMGWYRQAPGKERELVAAISRSGTSTYYADSVKGRFTISRDNAKNTVYLQMNSLKPEDTAVYYCAAGYWFSYSRVTRYDYWGQGTQVTVSS", "polyreactivity (PSR sort gate)": "high polyreactivity"},
      {"sequence": "QVQLVESGGGLVQAGGSLRLSCAASGSIFPLNAMGWYRQAPGKERELVATISWRGGITYYADSVKGRFTISRDNAKNTVYLQMNSLKPEDTAVYYCATVGRWNSLWYRYRYDYWGQGTQVTVSS", "polyreactivity (PSR sort gate)": "low polyreactivity"},
      {"sequence": "QVQLVESGGGLVQAGGSLRLSCAASGSIFPLYAMGWYRQAPGKERELVAAISWSGGSTYYADSVKGRFTISRDNAKNTVYLKMNSLKPEDTAVYYCATLYISTSGYIYEGDYWGQGTQVTVSS", "polyreactivity (PSR sort gate)": "high polyreactivity"},
      {"sequence": "QVQLVESGGGLVQAGGSLRLSCAASGSIFPPNAMGWDRQAPGKERELVAGISQSGGSTYYAESVKGRFTISRDNAKNTVYLQMNSLKPEDTAVYYCARSFYSGRRYYYWGQGTQVTVSS", "polyreactivity (PSR sort gate)": "high polyreactivity"},
      {"sequence": "QVQLVESGGGLVQAGGSLRLSCAASGSIFPPYAMGWYRPAPGKERELVAAINSGGSTNYADSVKGRFTISRDNAKNTVYLQMNSLIPEDTAVYYCNVDESYDWRTRKYDSWGQVTQVTVSS", "polyreactivity (PSR sort gate)": "low polyreactivity"},
      {"sequence": "QVQLVESGGGLVQAGGSLRLSCAASGSIFPPYAMGWYRQAPGKERELVAAIRRGSSTYYADSVKGRFTISRDNAKNTVYLQMNSLKPEDTAVYYCAARGRYRIGPGRYGKRYDYWGQGTQVTVSS", "polyreactivity (PSR sort gate)": "high polyreactivity"},
      {"sequence": "QVQLVESGGGLVQAGGSLRLSCAASGSIFPPYAMGWYRQAPGKERELVATITIRGGSTYYADSVKGRFTISRDNAKNTVYLQMNSLKPEDTAVYYCAADYTKYYRRYYYWGQGTQVTVSS", "polyreactivity (PSR sort gate)": "high polyreactivity"},
      {"sequence": "QVQLVESGGGLVQAGGSLRLSCAASGSIFPQYAMGWYRQAPGKERELVAAISSSGGRTYYADSVKGRFTISRDNAKNTVYLQMNSLKPEDTAVYYCAADGSYAIGGYGYWGQGTQVTVSS", "polyreactivity (PSR sort gate)": "high polyreactivity"},
      {"sequence": "QVQLVESGGGLVQAGGSLRLSCAASGSIFPQYAMGWYRQAPGKERELVAAITRSGGGTHYADSVKGRFTISRDYAKNTVYFQMNSLKPEDTAVYYCAKAGYRSEFEYWGQGTQVTVSS", "polyreactivity (PSR sort gate)": "low polyreactivity"},
      {"sequence": "QVQLVESGGGLVQAGGSLRLSCAASGSIFPRNAMGWYRQAPGKERELVAGISSGGSTNYADSVKGRFTISRDNAKNTVYLQMNSLKPEDTAVYYCAARQWIRNLGFGYSIYYYWGLGTQVTVSS", "polyreactivity (PSR sort gate)": "high polyreactivity"},
      {"sequence": "QVQLVESGGGLVQAGGSLRLSCAASGSIFPRYAMGWYRQAPGKERELVAAITGSGSSTYYADSVKGRFTISRDNAKNTVYLQMNSLKPEDTAVYYCAARKARPPCPHPFDYYWGEGTQVTVSS", "polyreactivity (PSR sort gate)": "low polyreactivity"},
      {"sequence": "QVQLVESGGGLVQAGGSLRLSCAASGSIFPRYAMGWYRQAPGKERELVAAITNGGSTDYADSVKGRFTISRDNAKKTVYLLMNSLKPEDTAGYYCAADLAVGIYPEDGDYWGQGTKVTVSS", "polyreactivity (PSR sort gate)": "low polyreactivity"},
      {"sequence": "QVQLVESGGGLVQAGGSLRLSCAASGSIFPRYFMGWYRQAPGKERELVAAISQSGGSTYYADSVKGRFTISRDNAKNTVYLQMNSLKPEDTAVYYCAAEVRGWRVDYYYWGQGTQVTVSS", "polyreactivity (PSR sort gate)": "high polyreactivity"},
      {"sequence": "QVQLVESGGGLVQAGGSLRLSCAASGSIFPRYVMGWYRQAPGTARELVAAISGSGGSTYYADSVKGRFTISRDNAKNTVYLQMNSLKPEDTAVYYCNKLRRRVNRDIDDYWGQGTQVTVSS", "polyreactivity (PSR sort gate)": "high polyreactivity"},
      {"sequence": "QVQLVESGGGLVQAGGSLRLSCAASGSIFPSNAMGWYRQAPGKERELVAAINRDGISNYADSVKGRFTISRDNAKNTVYLQMNSLKPEDTAVYYCAAEFAWQWWEYGYWGQGTQVTVSS", "polyreactivity (PSR sort gate)": "low polyreactivity"},
      {"sequence": "QVQLVESGGGLVQAGGSLRLSCAASGSIFPSYAMGWYRPAPGIERELVAAINWDGGSTFYADSVKGRFTISRDNAKNTVYLQMNSLKPEDTAVYYCAKYTYQEIRNVGRRGHYYWGQGTQVTVSS", "polyreactivity (PSR sort gate)": "low polyreactivity"},
      {"sequence": "QVQLVESGGGLVQAGGSLRLSCAASGSIFPSYAMGWYRQAPGKERELVATISGSGTRTYYADSVKGRFTISRDNAKNTVYLQMNILKPEDTAVYYCAADPWLGTGRYDYWGQGTQVTVSS", "polyreactivity (PSR sort gate)": "low polyreactivity"},
      {"sequence": "QVQLVESGGGLVQAGGSLRLSCAASGSIFPTYAMGCYRQAPGKERELVAAIRSGSNTYYADSVKGRFTISRDNAKNTVYLQMNSLKPEDTAVYYCNVGPQRKYPGRRTVPFGYWGQGTQVTVSS", "polyreactivity (PSR sort gate)": "low polyreactivity"},
      {"sequence": "QVQLVESGGGLVQAGGSLRLSCAASGSIFPVNVMGWYRQAPGKERELVADITSTGTYYADSVKGRFTISRDNAKNTVYLQMNSLKPEDTAVYYCAKAGGSWYRRYYYWGQGTQVTVSS", "polyreactivity (PSR sort gate)": "high polyreactivity"},
      {"sequence": "QVQLVESGGGLVQAGGSLRLSCAASGSIFPVYAMGWYRPAPGKERELVAAISLRAGNTYYADSVKGRFTISRDNAKNTVYLQMNSLKPEDTAVYDCAVELFRSTTIYDYWGQGTLVTVSS", "polyreactivity (PSR sort gate)": "high polyreactivity"},
      {"sequence": "QVQLVESGGGLVQAGGSLRLSCAASGSIFPVYAMGWYRQAPGKERELVAAISWIGGGTYYADSVKGRFTISRDNAKNTVYLQMNSLKPEDTAVYYCAAVPYTSEYDYWGQGTKVTVSS", "polyreactivity (PSR sort gate)": "high polyreactivity"},
      {"sequence": "QVQLVESGGGLVQAGGSLRLSCAASGSIFPVYAMGWYRQAPGKERELVATIRSGGARTYYADSVKGRFTISRDNAKNTVYLQMNSLKPEDTAVYYCATRWPHYGGYYYWGQGTQVTVSS", "polyreactivity (PSR sort gate)": "high polyreactivity"},
      {"sequence": "QVQLVESGGGLVQAGGSLRLSCAASGSIFPVYAMGWYRQAPGKQRELVAAITTAGRTYYADSVKGRFTISRDNAKNTVYLQMNSLKPEDTAVYYCNARSRKGLTVDGGYWGQGTQVTVSS", "polyreactivity (PSR sort gate)": "high polyreactivity"},
      {"sequence": "QVQLVESGGGLVQAGGSLRLSCAASGSIFPWYAMGWYRQAPGKEKELVAAIRWRDGRTYYADSVKGRFTISRDNAKNTVYLQMNSLKPEDTAVYYCAAVSTDKYVYGVDVYLYDYWGQGTQVTVSS", "polyreactivity (PSR sort gate)": "low polyreactivity"},
      {"sequence": "QVQLVESGGGLVQAGGSLRLSCAASGSIFPWYAMGWYRQAPGNERELVAAINQIGGGGTNYADSVKGRFTISRDNAKNTVYLQMNSLKPEDTAVYYCAADHVWIRAYRFTKGDDYWGQGTQVTVSS", "polyreactivity (PSR sort gate)": "low polyreactivity"},
      {"sequence": "QVQLVESGGGLVQAGGSLRLSCAASGSIFPYNAMGWYRPAPGKERELVATISSGGSTNYADSVKGRFTISRDNAMNTVYLQMNIMKPEDTAVYYCAKETIGQDPVSGAWARHEYDYWGQGTQVTVSS", "polyreactivity (PSR sort gate)": "low polyreactivity"},
      {"sequence": "QVQLVESGGGLVQAGGSLRLSCAASGSIFPYNAMGWYRQAPGKERELVAAISKRGGSTYYADSVKGRFTISRDNAKNTVYLQMNSLKPEDTAVYYCAARYPPYRSWYSYDYWGQGTQVTVSS", "polyreactivity (PSR sort gate)": "low polyreactivity"},
      {"sequence": "QVQLVESGGGLVQAGGSLRLSCAASGSIFPYNVMGWYRQAPGKERELVAAISTRGGRTYYADSVKGRVTISRDNAKNTVYLQMNSLKPEDTAVYDCATAGGPYSASGYYGGQGTQVTVSS", "polyreactivity (PSR sort gate)": "high polyreactivity"},
      {"sequence": "QVQLVESGGGLVQAGGSLRLSCAASGSIFPYNVMGWYRQTPGKERELVADIRSDGSTTYADSVKGRFTISRDNAKNTVYLQMNSLKPEDTAVYDCAAVWTYLYSYSLWLEYDYWGQGTQVTVSS", "polyreactivity (PSR sort gate)": "low polyreactivity"},
      {"sequence": "QVQLVESGGGLVQAGGSLRLSCAASGSIFPYYAMGWNRQAPGKERELVATITSRGGSTYYADSVKGRFTISRDNAKNTVYLQMNSLKPEDTAVYYCAKEYRYYRRRYDYWGQGTQVTVSS", "polyreactivity (PSR sort gate)": "high polyreactivity"},
      {"sequence": "QVQLVESGGGLVQAGGSLRLSCAASGSIFPYYAMGWSRQAPGKERELVASINQSDGTTYYADSVKGRFTISRDNAKNTVYLQMNSLKPEDTAVYYCAAAYFYWRVDKYYYWGQGTQVTVSS", "polyreactivity (PSR sort gate)": "low polyreactivity"},
      {"sequence": "QVQLVESGGGLVQAGGSLRLSCAASGSIFPYYAMGWYRQAPGKEREFVAAITISGGSTYYADSVKGRFTISRDNAKNTVYLQMNSLKPEDTAVYYCAVDRGISVGYTRFDYWGKGTQVTVSS", "polyreactivity (PSR sort gate)": "low polyreactivity"},
      {"sequence": "QVQLVESGGGLVQAGGSLRLSCAASGSIFPYYAMGWYRQAPGKEREFVASISSVTSTYADSVKGRFTISRDNAKNTVYLQMNSLKPEDTAVYYCAADRAYSWYSVSRYNYWGQGTQVTVSS", "polyreactivity (PSR sort gate)": "low polyreactivity"},
      {"sequence": "QVQLVESGGGLVQAGGSLRLSCAASGSIFPYYAMGWYRQAPGKVRELVATISSGGSTKYADSVKGRFTISRDNAKNTVYLQMNSLKPEDTAVYYCAADWYLGPYSWYTEKYNYCGQGTQVTVSS", "polyreactivity (PSR sort gate)": "high polyreactivity"},
      {"sequence": "QVQLVESGGGLVQAGGSLRLSCAASGSIFPYYTMGWYRQAPGKERELVAGISSGGSTNYADSVKGRFTISRDNAKNTVYLQMNSLKPEDTAVYYCNARRYWLRYDYWGQGTQVTVSS", "polyreactivity (PSR sort gate)": "low polyreactivity"}
    ]}
  ]
}
